Test results reported in US20250339569A1 (3B PHARMACEUTICALS, published 2025).
Starred links: 1 amine or outer side, 2 acyl side, 3 side chain; linkers in the order of their positions; H or OH if unused. Positions of bridges follow the written chain, without caps; N, C: chain ends. Non-standard residues stand in square brackets, D forms with d. Primed or numbered codes have the meaning given here. ξ: configuration not given here. *: point of attachment. DOTA = O=C(O)CN1CCN(CC(=O)O)CCN(CC(=O)*)CCN(CC(=O)O)CC1; Trp(5-Cl) = N[C@@H](Cc1c[nH]c2ccc(Cl)cc12)C(=O)O; ξTrp(5-Me) = Cc1ccc2[nH]cc(CC(N)C(=O)O)c2c1; Ttds(3) = NCCCOCCOCCOCCCNC(=O)CCC(=O)*; mXylylene = c1cc(C[*:1])cc(C[*:2])c1; Bta = N[C@@H](Cc1csc2ccccc12)C(=O)O; Hydrocinnamoyl = O=C(CCc1ccccc1)*; Isovaleryl = CC(C)CC(=O)*; PhAc = O=C(Cc1ccccc1)*; Sar = CNCC(=O)O

Molecular target: human carbonic anhydrase 9 (CAIX) (human, UniProt Q16790 38-459)
Test: FACS competition on HT-29 cells against tracer 3BP-2776; pIC50 category A = pIC50 >8.0

Binder	pIC50
{DOTA-Ttds(3)}-VYCE[Sar]DWLTWQC-NH2 (linker 3-12 via mXylylene, also called DOTA-Ttds-Val-Tyr-[Cys(3MeBn)-Glu-Nmg-Asp-Trp-Leu-Thr-Trp-Gln-Cys]-NH2) [3BP-3271]	> 8 pic50
Isovaleryl-VYCEGDWLTWQC-NH2 (linker 3-12 via mXylylene; SMILES CC(C)CC(=O)N[C@H](C(=O)N[C@@H](Cc1ccc(O)cc1)C(=O)N[C@H]1CSCc2cccc(c2)CSC[C@@H](C(N)=O)NC(=O)[C@H](CCC(N)=O)NC(=O)[C@H](Cc2c[nH]c3ccccc23)NC(=O)[C@H]([C@@H](C)O)NC(=O)[C@H](CC(C)C)NC(=O)[C@H](Cc2c[nH]c3ccccc23)NC(=O)[C@H](CC(=O)O)NC(=O)CNC(=O)[C@H](CCC(=O)O)NC1=O)C(C)C) [3BP-3111]	> 8 pic50
Ac-VYCE[Sar]D[Bta]LTWQC-NH2 (linker 3-12 via mXylylene; SMILES CC(=O)N[C@H](C(=O)N[C@@H](Cc1ccc(O)cc1)C(=O)N[C@H]1CSCc2cccc(c2)CSC[C@@H](C(N)=O)NC(=O)[C@H](CCC(N)=O)NC(=O)[C@H](Cc2c[nH]c3ccccc23)NC(=O)[C@H]([C@@H](C)O)NC(=O)[C@H](CC(C)C)NC(=O)[C@H](Cc2csc3ccccc23)NC(=O)[C@H](CC(=O)O)NC(=O)CN(C)C(=O)[C@H](CCC(=O)O)NC1=O)C(C)C, also called Ac-Val-Tyr-[Cys(3MeBn)-Glu-Nmg-Asp-Bta-Leu-Thr-Trp-Gln-Cys]-NH2) [3BP-3311]	> 8 pic50
PhAc-VYCEGDWLTWQC-NH2 (linker 3-12 via mXylylene; SMILES CC(C)C[C@@H]1NC(=O)[C@H](Cc2c[nH]c3ccccc23)NC(=O)[C@H](CC(=O)O)NC(=O)CNC(=O)[C@H](CCC(=O)O)NC(=O)[C@@H](NC(=O)[C@H](Cc2ccc(O)cc2)NC(=O)[C@@H](NC(=O)Cc2ccccc2)C(C)C)CSCc2cccc(c2)CSC[C@@H](C(N)=O)NC(=O)[C@H](CCC(N)=O)NC(=O)[C@H](Cc2c[nH]c3ccccc23)NC(=O)[C@H]([C@@H](C)O)NC1=O) [3BP-3109]	> 8 pic50

Results, then the binder that gave them:

pIC50	Binder
> 8 pic50	Hydrocinnamoyl-VYCEGDWLTWQC-NH2 (linker 3-12 via mXylylene; SMILES CC(C)C[C@@H]1NC(=O)[C@H](Cc2c[nH]c3ccccc23)NC(=O)[C@H](CC(=O)O)NC(=O)CNC(=O)[C@H](CCC(=O)O)NC(=O)[C@@H](NC(=O)[C@H](Cc2ccc(O)cc2)NC(=O)[C@@H](NC(=O)CCc2ccccc2)C(C)C)CSCc2cccc(c2)CSC[C@@H](C(N)=O)NC(=O)[C@H](CCC(N)=O)NC(=O)[C@H](Cc2c[nH]c3ccccc23)NC(=O)[C@H]([C@@H](C)O)NC1=O) [3BP-3110]
> 8 pic50	Ac-VYCE[Sar]D[ξTrp(5-Me)]LTWQC-NH2 (linker 3-12 via mXylylene; not fully specified; also: position 7 is DL-5-methyltryptophan, configuration not given here, also called Ac-Val-Tyr-[Cys(3MeBn)-Glu-Nmg-Asp-Egc-Leu-Thr-Trp-Gln-Cys]-NH2) [3BP-3290]
> 8 pic50	Ac-VYCE[Sar]D[Trp(5-Cl)]LTWQC-NH2 (linker 3-12 via mXylylene; SMILES CC(=O)N[C@H](C(=O)N[C@@H](Cc1ccc(O)cc1)C(=O)N[C@H]1CSCc2cccc(c2)CSC[C@@H](C(N)=O)NC(=O)[C@H](CCC(N)=O)NC(=O)[C@H](Cc2c[nH]c3ccccc23)NC(=O)[C@H]([C@@H](C)O)NC(=O)[C@H](CC(C)C)NC(=O)[C@H](Cc2c[nH]c3ccc(Cl)cc23)NC(=O)[C@H](CC(=O)O)NC(=O)CN(C)C(=O)[C@H](CCC(=O)O)NC1=O)C(C)C, also called Ac-Val-Tyr-[Cys(3MeBn)-Glu-Nmg-Asp-5Clw-Leu-Thr-Trp-Gln-Cys]-NH2) [3BP-3289]
